Assay results: paper PMC9901172

Columns and labels:
[1] = target: Kap114•XFD488-H2A-H2B complex (yeast | frog) (UniProt P53067); assay: fluorescence polarisation
[2] = target: Imp9•XFD488-H2A-H2B complex (human | frog) (UniProt Q96P70); assay: fluorescence polarisation

Kd [1]: 270 nM
Kd [2]: 150 nM
Substance: yeast RanGTP (Saccharomyces cerevisiae Gsp1 residues 1-179 with Q71L) (from UniProt P32835 1-179) (domain or fragment)
